Results as given in the RNAGym collection of RNA variant scans (doi:10.7554/elife.80360).

B1: Hairpin Ribozyme (parent)
chain: GUCCUCUUUCACGUGCGCGUGAAAGAGAGAAGUGAACCAGAGAAACACACGUUGUGGUAUAUUACCUGGUA

Variants of: B1
Assay: self-cleavage, relative activity (ratio to wild type); higher = more cleavage; co-transcriptional

With GUCCUCUUUCACGUGCGCGUGAAAGAGAGAAGUGAACCAGAGAAACACCCGUUGUGGUAUAUUACCUGCUA [A49C G69C] as the variant, how does the self-cleavage read?
The self-cleavage was 0.241.

With GUCCUCUUUCACGUGCGCGUGAAAGAGAGAAGUGAACCAGAGAAACAUACGUUGUGGUAUACUACCUGGUA [C48U U62C] as the variant, how does the self-cleavage read?
The self-cleavage was 0.118.

For GUCCUCUUUCACGUGCGCGUGAAAGAGAGAAGUGAACCAGAGAAACAUACGUUGUGGUAUAAUACCUGGUA [C48U U62A], which self-cleavage is on record?
The self-cleavage was 0.201.

Which self-cleavage does the source give for GUCCUCUUUCACGUGCGCGUGAAAGAGAGAAGUGAACCAGAGAAACAUACGUUGUGGUAUAUUACCCGGUA [C48U U67C] here?
The self-cleavage was 0.11.

With GUCCUCUUUCACGUGCGCGUGAAAGAGAGAAGUGAACCAGAGAAACAUACGUUGUGGUAUAUUACCAGGUA [C48U U67A] as the variant, how does the self-cleavage read?
The self-cleavage was 0.119.

For GUCCUCUUUCACGUGCGCGUGAAAGAGAGAAGUGAACCAGAGAAACACCCGUUGAGGUAUAUUACCUGGUA [A49C U55A], which self-cleavage is on record?
Its self-cleavage is 0.164.

With GUCCUCUUUCACGUGCGCGUGAAAGAGAGAAGUGAACCAGAGAAACACCCGUUGUGGUGUAUUACCUGGUA [A49C A59G] as the variant, how does the self-cleavage read?
Its self-cleavage is 0.167.

With GUCCUCUUUCACGUGCGCGUGAAAGAGAGAAGUGAACCAGAGAAACACCCGUUGUGGUCUAUUACCUGGUA [A49C A59C] as the variant, how does the self-cleavage read?
Its self-cleavage is 0.168.

For GUCCUCUUUCACGUGCGCGUGAAAGAGAGAAGUGAACCAGAGAAACACCCGUUGUGGUAUAUUAUCUGGUA [A49C C65U], which self-cleavage is on record?
Its self-cleavage is 0.08.

With GUCCUCUUUCACGUGCGCGUGAAAGAGAGAAGUGAACCAGAGAAACACGCGUUGUGGUUUAUUACCUGGUA [A49G A59U] as the variant, how does the self-cleavage read?
Its self-cleavage is 0.131.

Which self-cleavage does the source give for GUCCUCUUUCACGUGCGCGUGAAAGAGAGAAGUGAACCAGAGAAACACCCGUUAUGGUAUAUUACCUGGUA [A49C G54A] here?
Its self-cleavage is 0.235.

With GUCCUCUUUCACGUGCGCGUGAAAGAGAGAAGUGAACCAGAGAAACACCCGUUGUGUUAUAUUACCUGGUA [A49C G57U] as the variant, how does the self-cleavage read?
Its self-cleavage is 0.0763.

With GUCCUCUUUCACGUGCGCGUGAAAGAGAGAAGUGAACCAGAGAAACACGCGUUGUGGUAUAUUACCUGGUU [A49G A71U] as the variant, how does the self-cleavage read?
The self-cleavage was 0.397.

Which self-cleavage does the source give for GUCCUCUUUCACGUGCGCGUGAAAGAGAGAAGUGAACCAGAGAAACACGCGUUGUGGUAUAUUACCUGGUG [A49G A71G] here?
The self-cleavage was 0.526.

Which self-cleavage does the source give for GUCCUCUUUCACGUGCGCGUGAAAGAGAGAAGUGAACCAGAGAAACACGCGUUGUGGUAUAUUACCUGGUC [A49G A71C] here?
The self-cleavage was 1.18.

For GUCCUCUUUCACGUGCGCGUGAAAGAGAGAAGUGAACCAGAGAAACACCCGUUGUGGUAUAUUACCUGGUG [A49C A71G], which self-cleavage is on record?
Its self-cleavage is 0.177.

Which self-cleavage does the source give for GUCCUCUUUCACGUGCGCGUGAAAGAGAGAAGUGAACCAGAGAAACACGCGUUGUGGUAUAUUACAUGGUA [A49G C66A] here?
Its self-cleavage is 0.302.

Which self-cleavage does the source give for GUCCUCUUUCACGUGCGCGUGAAAGAGAGAAGUGAACCAGAGAAACACCCGUUGUGGUAUACUACCUGGUA [A49C U62C] here?
Its self-cleavage is 0.22.

For GUCCUCUUUCACGUGCGCGUGAAAGAGAGAAGUGAACCAGAGAAACACCUGUUGUGGUAUAUUACCUGGUA [A49C C50U], which self-cleavage is on record?
The self-cleavage was 0.122.

With GUCCUCUUUCACGUGCGCGUGAAAGAGAGAAGUGAACCAGAGAAACACCCGUUGUUGUAUAUUACCUGGUA [A49C G56U] as the variant, how does the self-cleavage read?
The self-cleavage was 0.23.

With GUCCUCUUUCACGUGCGCGUGAAAGAGAGAAGUGAACCAGAGAAACACCCCUUGUGGUAUAUUACCUGGUA [A49C G51C] as the variant, how does the self-cleavage read?
Its self-cleavage is 0.1.

With GUCCUCUUUCACGUGCGCGUGAAAGAGAGAAGUGAACCAGAGAAACACCCUUUGUGGUAUAUUACCUGGUA [A49C G51U] as the variant, how does the self-cleavage read?
Its self-cleavage is 0.0813.

Which self-cleavage does the source give for GUCCUCUUUCACGUGCGCGUGAAAGAGAGAAGUGAACCAGAGAAACACCCGUUGUGGUAUGUUACCUGGUA [A49C A61G] here?
The self-cleavage was 0.172.

With GUCCUCUUUCACGUGCGCGUGAAAGAGAGAAGUGAACCAGAGAAACACCCGUUGUGGAAUAUUACCUGGUA [A49C U58A] as the variant, how does the self-cleavage read?
Its self-cleavage is 0.082.

For GUCCUCUUUCACGUGCGCGUGAAAGAGAGAAGUGAACCAGAGAAACAUACGUUGUGGUAUAUUACCUGGGA [C48U U70G], which self-cleavage is on record?
Its self-cleavage is 0.211.

With GUCCUCUUUCACGUGCGCGUGAAAGAGAGAAGUGAACCAGAGAAACAUACGUUGUGGUAUAUUACCUGGAA [C48U U70A] as the variant, how does the self-cleavage read?
Its self-cleavage is 0.152.

For GUCCUCUUUCACGUGCGCGUGAAAGAGAGAAGUGAACCAGAGAAACACCCGUUGUGGUAUAUCACCUGGUA [A49C U63C], which self-cleavage is on record?
The self-cleavage was 0.

For GUCCUCUUUCACGUGCGCGUGAAAGAGAGAAGUGAACCAGAGAAACACGGGUUGUGGUAUAUUACCUGGUA [A49G C50G], which self-cleavage is on record?
Its self-cleavage is 0.166.

With GUCCUCUUUCACGUGCGCGUGAAAGAGAGAAGUGAACCAGAGAAACACGCGUUGUGGUAUUUUACCUGGUA [A49G A61U] as the variant, how does the self-cleavage read?
The self-cleavage was 0.217.

For GUCCUCUUUCACGUGCGCGUGAAAGAGAGAAGUGAACCAGAGAAACACGCGUUGUGGUAUGUUACCUGGUA [A49G A61G], which self-cleavage is on record?
Its self-cleavage is 0.211.

Which self-cleavage does the source give for GUCCUCUUUCACGUGCGCGUGAAAGAGAGAAGUGAACCAGAGAAACAUACGUUGUGGUAUAUCACCUGGUA [C48U U63C] here?
The self-cleavage was 0.19.

Which self-cleavage does the source give for GUCCUCUUUCACGUGCGCGUGAAAGAGAGAAGUGAACCAGAGAAACAUACGUUGUGGUAUAUGACCUGGUA [C48U U63G] here?
Its self-cleavage is 0.163.

For GUCCUCUUUCACGUGCGCGUGAAAGAGAGAAGUGAACCAGAGAAACACCCGUUGUGGUAUAUUACCUUGUA [A49C G68U], which self-cleavage is on record?
The self-cleavage was 0.118.

With GUCCUCUUUCACGUGCGCGUGAAAGAGAGAAGUGAACCAGAGAAACACCCGUUGUGGUAUAUUACCUAGUA [A49C G68A] as the variant, how does the self-cleavage read?
Its self-cleavage is 0.164.

With GUCCUCUUUCACGUGCGCGUGAAAGAGAGAAGUGAACCAGAGAAACACCCGUUGUGGUAUAUUACCUCGUA [A49C G68C] as the variant, how does the self-cleavage read?
The self-cleavage was 0.15.

For GUCCUCUUUCACGUGCGCGUGAAAGAGAGAAGUGAACCAGAGAAACACCCGGUGUGGUAUAUUACCUGGUA [A49C U52G], which self-cleavage is on record?
Its self-cleavage is 0.14.

For GUCCUCUUUCACGUGCGCGUGAAAGAGAGAAGUGAACCAGAGAAACACCCGAUGUGGUAUAUUACCUGGUA [A49C U52A], which self-cleavage is on record?
The self-cleavage was 0.0356.

With GUCCUCUUUCACGUGCGCGUGAAAGAGAGAAGUGAACCAGAGAAACAUACGUUGUGGUAAAUUACCUGGUA [C48U U60A] as the variant, how does the self-cleavage read?
The self-cleavage was 0.107.
